Here are results for four compounds from patent US10962518B2, “Dissolution test for sensitive drugs” (ROYAN INSTITUTE, priority 2017, dated 2021).

The conditions of series [1]: cited from earlier work; for tstability of drug: at 37° C.
A short description of series [2]: hGH stability tests in phosphate buffer (0.01 ppm hGH solution, stability versus time). It counts as physicochemical. Conditions: 0.01 ppm hGH in 0.05 M phosphate buffer pH=7.4. As to the method: In this example, exemplary systems and methods were used for performing dissolution tests on human growth hormone (hGH), consistent with an exemplary embodiment of the present disclosure. The release performance of hGH was evaluated for a 14-day period. First, the stability of hGH in a phosphate buffer at 37±1° C. was tested. To this end, a 0.01 ppm hGH solution in a 0.05 M phosphate buffer with a pH=7.4 was prepared. The prepared hGH solution was maintained at a temperature of approximately 37±1° C. and stability analyses were performed at 0, 1, 2, 3, 4, 6, 12, and 24 hours.
FIG. 4 illustrates an hGH stability versus time graph obtained from stability tests performed at 37±1° C., consistent with one or more exemplary embodiments of the present disclosure. […] Therefore, if a dissolution test was to be performed by available USP apparatuses, the hGH solution would have to be prepared, sampled and analyzed every 2 hours, which means for a dissolution evaluation that needs to be performed during a 14-day period, at least 168 dissolution tests must be performed.
The stability of hGH was then tested in a phosphate buffer at 5±2° C. To this end, a 0.01 ppm hGH solution in a 0.05 M phosphate buffer with a pH=7.4 was prepared. The prepared hGH solution was maintained at a temperature of approximately 5±2° C. and stability analyses were performed at 0, 1, 2, 3, 4, and 5 days. […]

Where two headings read alike, the source gives them in different places.

Turning to “IGF-I: IGF-I, a drug listed in Table 2 with serum as its dissolution medium”, the tstability of drug in series [1] (serum) was less than 10 h. For “hGH: human growth hormone (hGH), the temperature-sensitive drug used in the Example”, the tstability of drug in series [1] (PBS buffer pH = 7.4) is 1 h. Moreover, the “time for which the hGH solution is stable” value is 1 days in series [2] (5±2° C., analyses at 0-5 days (FIG. 5)) and 0.083 days in series [2] (37±1° C., analyses at 0-24 hours (FIG. 4)).

As to `O=C1CN(/N=C/c2ccc(-c3ccc([N+](=O)[O-])cc3)o2)C(=O)[N-]1.[Na+]` [Dantrolene, dantrolene sodium], the tstability of drug in series [1] (Buffer with pH 7.4) was 1 h. In addition, in series [1] (phosphate buffer with a pH of 7.4, approximately 37° C.), the “time for which the drug is stable in the dissolution medium” value was 1 h. As to `COc1ccc2[nH]c([S+]([O-])Cc3ncc(C)c(OC)c3C)nc2c1` (stereo not shown) [Omeprazole], the tstability of drug in series [1] (phosphate buffer pH 7.5) is less than 10 h.
